# Test results taken from US20230227537A1.
# Where “and” joins values, the source holds several entries; their conditions need not be identical. Identical values can stand only once.
# B1: VHH72_S56A-Fc (P. pastoris) (Fc fusion)
# chain: QVQLQESGGGLVQAGGSLRLSCAASGRTFSEYAMGWFRQAPGKEREFVATISWSGGATYYTDSVKGRFTISRDNAKNTVYLQMNSLKPDDTAVYYCAAAGLGTVVSEWDYDYDYWGQGTQVTVSS
# Target: Mouse IgG1 Fc fused SARS-CoV-2 RBD (Sino Biological) (SARS-CoV-2; mouse), P0DTC2
# Conditions: remark: other sources report otherwise
binder,measurement,value
B1,% Signal decrease over 8 min dissociation,6% and 7%
same,Kd,0.0496 nM and 0.0541 nM
same,koff,0.000123 s⁻¹ and 0.000146 s⁻¹
same,kon,2.48e+06 M⁻¹ s⁻¹ and 2.69e+06 M⁻¹ s⁻¹
